The supplement of paper PMC7877785
± gives the uncertainty stated by the source.

Test: self-splicing fitness, log relative to wild type (ln ratio); higher = more splicing; Tetrahymena group I intron in knt gene, E. coli kanamycin selection, DiMSum; sequences stand for … in CUCUCU…GGAGGGAAAAGUUAUCAGGCAUGCACCUGGUAGCUAGUCUUUAAACCAAUAGAUUGCAUCGGUUUAAAAGGCAAGACCGUCAAAUUGCGGGAAAGGGGUCAACAGCCGUUCAGUACCAAGUCUCAGGGGAAACUUUGAGAUGGCCUUGCAAAGGGUAUGGUAAUAAGCUGACGGACAUGGUCCUAACCACGCAGCCAAGUCCUAAGUCAACAGAUCUUCUGUUGAUAUGGAUGCAGUUCACAGACUAAAUGUCGGUCGGGGAAGAUGUAUUCUUCUCAUAAGAUAUAGUCGGACCUCUCCUUAAUGGGAGCUAGCGGAUGAAGUGAUGCAACACUGGAGCCGCUGGGAACUAAUUUGUAUGCGAAAGUAUAUUGAUUAGUUUUGGAGUACUCGUGGUCG
How it was run: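 Six replicate transformations of E. coli BL21(DE3) with a pET-22b(+) library were grown overnight at 37°C or 30°C. The library randomised all eight P1ex-region intron nucleotides, the intron lying in the knt kanamycin-resistance gene, and plates were LB agar with or without 25 μg/mL kanamycin plus 100 μg/mL carbenicillin, 50 μM IPTG and 0.2% rhamnose. Pooled colonies were amplicon-sequenced on an Illumina HiSeq 2500, and fitness is the DiMSum error-weighted combination of wild-type-normalised replicate fold changes, kanamycin versus none.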

| Sequence | self-splicing fitness (ln) (30 °C) | self-splicing fitness (ln) (37 °C) |
| --- | --- | --- |
| GGAUAGCAAUAUUACGAAGG | -2.12 ± 0.24 | -2.02 ± 0.26 |
| UCUAAGCAAUAUUACGCUAU | -3.62 ± 0.31 | -3.37 ± 0.28 |
| UUACAGCAAUAUUACGCCAG | -1.74 ± 0.15 | -1.05 ± 0.21 |
| GAACAGCAAUAUUACGAAAA | -1.77 ± 0.14 | -1.65 ± 0.12 |
| UUAGAGCAAUAUUACGGACA | -2.08 ± 0.13 | -0.655 ± 0.16 |
| ACUCAGCAAUAUUACGCUGU | -3.46 ± 0.19 | -1.4 ± 0.17 |
| CUCCAGCAAUAUUACGGCGU | -3.61 ± 0.17 | -3.4 ± 0.23 |
| AAUUAGCAAUAUUACGAUAA | -0.869 ± 0.098 | -0.069 ± 0.14 |
| CAAGAGCAAUAUUACGAUAA | -3.21 ± 0.22 | -1.79 ± 0.18 |
| CGAUAGCAAUAUUACGAGGC | -3.66 ± 0.35 | -1.95 ± 0.48 |
| CAGAAGCAAUAUUACGGAGA | – | -2.16 ± 0.24 |
| UUUAAGCAAUAUUACGAUUG | -1.36 ± 0.15 | -1.12 ± 0.16 |
| GCGAAGCAAUAUUACGCGCC | – | -1.73 ± 0.4 |
| CCAAAGCAAUAUUACGUUGA | -3.42 ± 0.29 | -0.401 ± 0.14 |
| UUACAGCAAUAUUACGCUUU | -3.28 ± 0.25 | -2.08 ± 0.18 |
| AUUGAGCAAUAUUACGCGUU | -3.02 ± 0.26 | -2.34 ± 0.23 |
| ACGAAGCAAUAUUACGACGU | -2.78 ± 0.17 | -1.88 ± 0.19 |
| UAGUAGCAAUAUUACGGACA | -1.04 ± 0.17 | -0.115 ± 0.19 |
| GAUGAGCAAUAUUACGUACU | -1.85 ± 0.19 | -0.913 ± 0.26 |
| GAUAAGCAAUAUUACGAAUU | -3.63 ± 0.26 | -2.76 ± 0.25 |

| Sequence | self-splicing fitness (ln) (30 °C) | self-splicing fitness (ln) (37 °C) |
| --- | --- | --- |
| CUCCAGCAAUAUUACGGCUA | -3.19 ± 0.26 | -2.27 ± 0.2 |
| UUGCAGCAAUAUUACGGGGC | -3.99 ± 0.2 | -2.35 ± 0.2 |
| UAGGAGCAAUAUUACGACUC | -2.01 ± 0.28 | – |
| AAUGAGCAAUAUUACGCUUC | – | -1.71 ± 0.23 |
| CUUUAGCAAUAUUACGGCGG | -0.763 ± 0.093 | -0.528 ± 0.12 |
| ACUCAGCAAUAUUACGAAGU | -3 ± 0.14 | -1.75 ± 0.14 |
| GUUCAGCAAUAUUACGUGCC | -2.59 ± 0.2 | -1.19 ± 0.19 |
| ACGGAGCAAUAUUACGAGGC | -2.43 ± 0.19 | -2.07 ± 0.31 |
| UAGUAGCAAUAUUACGCCUC | – | -1.66 ± 0.31 |
| UUCAAGCAAUAUUACGACAU | -1.614 ± 0.014 | -0.69 ± 0.033 |
| UUCGAGCAAUAUUACGGACA | -2.7 ± 0.22 | -1.79 ± 0.17 |
| CCUCAGCAAUAUUACGAUCG | -0.809 ± 0.1 | -0.00907 ± 0.14 |
| CCCUAGCAAUAUUACGCUUU | -4.12 ± 0.22 | -2.49 ± 0.18 |
| UGCAAGCAAUAUUACGCUUU | -3.45 ± 0.21 | -1.85 ± 0.2 |
| UCCCAGCAAUAUUACGUAAU | -2.01 ± 0.068 | -0.749 ± 0.085 |
| CGACAGCAAUAUUACGUGAG | -0.627 ± 0.052 | -0.333 ± 0.074 |
| UCACAGCAAUAUUACGAACU | -3.39 ± 0.16 | -2.23 ± 0.15 |
| GUUGAGCAAUAUUACGCGAU | -3.79 ± 0.3 | -2.47 ± 0.34 |
| AACAAGCAAUAUUACGCCUG | -0.373 ± 0.094 | -0.0232 ± 0.095 |
| CUAAAGCAAUAUUACGACCA | -2.78 ± 0.23 | 0.487 ± 0.23 |
